Key:
CUL3 = test: BiFC assay of interaction with CUL3; assay type: cell-based, Arabidopsis thaliana; conditions: 1 mM SA for 5 hr
Description: Plasmid construction and E. coli-based ubiquitination: The coding sequences for all Arabidopsis genes were amplified from cDNA. Point mutations of AtNPR1 (AT1G64280) were generated using the QuikChange II site-directed mutagenesis kit (Agilent). Overlap PCR was used to generate the deletion/truncation mutations of AtCUL3A (AT1G26830) and AtNPR1. The WT and mutated coding sequences for all genes and gene fusions were sub-cloned into the pDONR207 gateway donor vector and confirmed by sequencing. The obtained entry vectors were recombined into either plant or E. coli destination vectors without or with an N- or C-terminal tag. For in planta expression, genes were recombined into the plant binary vectors pK7FWG2, pSITE-4NB and pLN462 to generate C-terminal eGFP, mCherry and HA fusions, respectively; into pK7WGF2, pEG201, pEG202, pEG203 and pEG204 to generate N-terminal eGFP, HA, FLAG, Myc and V5 fusions, respectively. For co-expression of NPR1 and CUL3 in E. coli, NPR1 or its mutant/truncation variants were first recombined into pDEST15 vector to generate N-terminal GST fusions (GST-NPR1). Next, E. coli-codon-optimized coding sequence of AtCUL3A fused to the Myc tag was amplified from pEG203-CUL3 and inserted between NdeI and XhoI in the MCS-II of pCDFDuet-1 to generate pCDFDuet-1:Myc-CUL3 plasmid. The two plasmids, pDEST15-NPR1 and pCDFDuet-1:Myc-CUL3, were co-transformed into the E. coli strain BL21(DE3) and protein expression was induced with 0.25 mM IPTG for 12 hr at 20° C. For co-expression of NPR1 and EDS1 in E. coli, the coding sequence of AtEDS1 (AT3G48090) fused to FLAG tag was inserted between NcoI and NotI in MCS-I of pETDuet-1 to first generate the pETDuet-1:FLAG-EDS1 plasmid. […] For bimolecular fluorescence complementation (BiFC), entry vectors carrying the coding sequences of genes and their mutant variants were recombined into the pSITE-cEYFP-N1 binary vector for C-terminal fusion with the cYFP half (YC), or into the pSITE-nEYFP-C1 for N-terminal fusion with the nYFP half (YN). […]

FLAG-WRKY70 = test: NPR1-CRL3 ubiquitination cascade reconstituted in E. coli; assay type: biochemical, Arabidopsis thaliana; conditions: 1 mM sodium salicylate
[1] = system: total protein ubiquitination; test: Total ubiquitination in N. benthamiana expressing CUL3 and NPR1 or sim3; assay type: cell-based, Nicotiana benthamiana
Procedure: Protein analysis and IP. Recombinant protein analysis was performed using transient expression in N. benthamiana, or stable over-expression in transgenic Arabidopsis, or expression in E. coli. Total protein extraction from plants was performed by homogenizing leaf tissue in the plant extraction buffer [50 mM Tris-HCl (pH 7.5), 150 mM NaCl, 5 mM EDTA, 0.2% Triton X-100, 0.2% Nonidet P-40] supplemented with 1 mM PMSF, 100 μM MG132, and EDTA-free protease inhibitor cocktail (Roche). For ubiquitinated protein analysis in plants, 100 μM of DUB (deubiquitinase) inhibitor (LifeSensors) and 10 mM NEM were added. Next, the lysates were cleared by centrifugation at 14,000 rpm for 15 min followed by filtering through a 0.2 μm filter. […] Pull-downs or IP experiments were done on total protein extracts by incubating protein samples in the lysis buffer overnight with indicated affinity tag or antibody conjugated to agarose or magnetic beads: GFP-trap agarose beads (Chromotek) for GFP fusions; RFP-trap agarose beads (Chromotek) for mCherry fusions; anti-HA magnetic beads (ThermoFisher) for HA tag fusions; anti-DYKDDDDK coupled magnetic agarose (ThermoFisher) for FLAG tag fusions; and glutathione magnetic agarose (ThermoFisher) for GST fusions. Unless otherwise indicated, after pull-down/IP, beads were washed 3 times and proteins were eluted by boiling in the 2×SDS sample buffer. […]

Molecule: NPR1: wild-type Arabidopsis thaliana NPR1 protein, positive regulator of systemic acquired resistance
- BiFC signal of interaction with CUL3 (CUL3): clear interactions with CUL3 in discrete cytoplasmic condensates
- ubiquitination of WRKY70 in reconstituted NPR1-CRL3 cascade (FLAG-WRKY70): could mediate ubiquitination of WRKY70

Molecule: O=C(O)c1ccccc1O [SA, salicylic acid]
- total protein ubiquitination under dose response to SA ([1]; 3 mM SA): reduction in ubiquitination

B1: sim3: SUMOylation-deficient mutant of NPR1 (protein)
chain: MDTTIDGFADSYEISSTSFVATDNTDSSIVYLAAEQVLTGPDVSALQLLSNSFESVFDSPDDFYSDAKLVLSDGREVSFHRCVLSARSSFFKSALAAAKKEKDSNNTAAVKLELKEIAKDYEVGFDSVVTVLAYVYSSRVRPPPKGVSECADENCCHVACRPAVDFMLEVLYLAFIFKIPELITLYQRHLLDVVDKVVIEDTLVILKLANICGKACMKLLDRCKEIIVKSNVDMVSLEKSLPEELVKEIIDRRKELGLEVPKVKKHVSNVHKALDSDDIELVKLLLKEDHTNLDDACALHFAVAYCNVKTATDLLKLDLADVNHRNPRGYTVLHVAAMRKEPQLAASALEKGASASEATLEGRTALMIAKQATMAVECNNIPEQCKHSLKGRLCVEILEQEDKREQIPRDVPPSFAVAADELKMTLLDLENRVALAQRLFPTEAQAAMEIAEMKGTCEFIVTSLEPDRLTGTKRTSPGVKIAPFRILEEHQSRLKALSKTVELGKRFFPRCSAVLDQIMNCEDLTQLACGEDDTAEKRLQKKQRYMEIQETLKKAFSEDNLELGNSSLTDSTSSTSKSTGGKRSNRKLSHRRR
modifications: left off: small tags and cut ends
notes: SUMOylation-deficient mutant of NPR1
- BiFC signal of interaction with CUL3 (CUL3): more intense
- baseline SA-dependent ubiquitination ([1]; compared with NPR1): lower
- ubiquitination of WRKY70 in reconstituted NPR1-CRL3 cascade (FLAG-WRKY70): could mediate ubiquitination of WRKY70

B2: S55/59D: phosphomimic mutant of NPR1 at S55/59 (protein)
chain: MDTTIDGFADSYEISSTSFVATDNTDSSIVYLAAEQVLTGPDVSALQLLSNSFEDVFDDPDDFYSDAKLVLSDGREVSFHRCVLSARSSFFKSALAAAKKEKDSNNTAAVKLELKEIAKDYEVGFDSVVTVLAYVYSSRVRPPPKGVSECADENCCHVACRPAVDFMLEVLYLAFIFKIPELITLYQRHLLDVVDKVVIEDTLVILKLANICGKACMKLLDRCKEIIVKSNVDMVSLEKSLPEELVKEIIDRRKELGLEVPKVKKHVSNVHKALDSDDIELVKLLLKEDHTNLDDACALHFAVAYCNVKTATDLLKLDLADVNHRNPRGYTVLHVAAMRKEPQLILSLLEKGASASEATLEGRTALMIAKQATMAVECNNIPEQCKHSLKGRLCVEILEQEDKREQIPRDVPPSFAVAADELKMTLLDLENRVALAQRLFPTEAQAAMEIAEMKGTCEFIVTSLEPDRLTGTKRTSPGVKIAPFRILEEHQSRLKALSKTVELGKRFFPRCSAVLDQIMNCEDLTQLACGEDDTAEKRLQKKQRYMEIQETLKKAFSEDNLELGNSSLTDSTSSTSKSTGGKRSNRKLSHRRR
modifications: left off: small tags and cut ends
- BiFC signal of interaction with CUL3 (CUL3): significantly weaker BiFC signal

— patent US20230227838A1, “ENHANCED CELL SURVIVAL AGAINST BIOTIC AND ABIOTIC STRESSES THROUGH SALICYLICK ACID-INDUCED NPR1 CONDENSATES” (priority 2020, published 2023)
